In data set [1] the target is T1, HRP-2 (Histidine-Rich Protein 2) (UniProt P05227 P05227:22-332).
T1 sequence: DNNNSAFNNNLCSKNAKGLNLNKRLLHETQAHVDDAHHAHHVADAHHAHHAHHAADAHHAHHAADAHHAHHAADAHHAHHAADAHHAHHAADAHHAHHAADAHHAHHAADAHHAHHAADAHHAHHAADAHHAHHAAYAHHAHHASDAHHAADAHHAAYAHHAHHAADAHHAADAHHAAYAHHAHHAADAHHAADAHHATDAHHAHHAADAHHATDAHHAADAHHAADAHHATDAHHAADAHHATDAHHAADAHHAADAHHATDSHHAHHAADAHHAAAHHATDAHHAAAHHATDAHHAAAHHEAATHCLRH
Briefly: flow; PBSMCT buffer; 0.124 nM in 10% human serum. To be noted: tags: His-Tag; Fitzgerald Industries International.

For data set [2], the target named is T2, TNF-alpha (Homo sapiens, UniProt P01375 P01375:77-233). Briefly: flow; PBSMCT buffer, room temperature, 3 h. To be noted: tags: biotinylated; R&D Systems; chain copies: 3 (inferred). As for the experimental part:
(§1) MyOne carboxylic acid magnetic particles were coated with amino-modified candidate nucleic acid agents S01, B01, or VR11 (a previously published TNF-α candidate nucleic acid agent), or with mAb11 antibody (a commercial TNF-α antibody). […] The unbound TNF-α was washed away with PBSMCT, after which streptavidin-conjugated Alexa Fluor 488 was introduced and incubated for 15 minutes to label the bound TNF-α. The particles were washed with PBSMCT and median fluorescence intensities were quantified via FACS.
(§2) Sequences and relative affinities of all candidate nucleic acid agents are shown in the methods above.

Data set [3] addresses T2, TNF-alpha. In words: flow; PBSMCT buffer (2.5 mM MgCl2, 1 mM CaCl2), room temperature, 3 h; 0.27 nM in serum. Particulars: tags: biotinylated; R&D Systems; chain copies: 3 (inferred). As for the experimental part:
as §1, §2

For data set [4], the target named is NGAL (Neutrophil Gelatinase-Associated Lipocalin) (Homo sapiens, UniProt P80188 P80188:21-198). In words: flow; PBSMCT buffer; 1.28 nM in 10% human serum. Particulars: tags: His-Tag; R&D Systems.

As usually defined, the Kd is the free concentration of one partner at which half of the binding sites on the other are occupied at equilibrium, for simple one-to-one binding. High values mean a looser complex, low ones a tighter complex.

T2 sequence (P01375 77-233, one chain of several): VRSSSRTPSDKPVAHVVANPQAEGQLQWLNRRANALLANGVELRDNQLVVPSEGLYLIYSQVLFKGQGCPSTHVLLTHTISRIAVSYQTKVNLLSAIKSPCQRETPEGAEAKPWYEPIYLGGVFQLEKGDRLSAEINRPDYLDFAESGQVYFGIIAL
Chain of NGAL (Neutrophil Gelatinase-Associated Lipocalin) (P80188 21-198, one chain of several): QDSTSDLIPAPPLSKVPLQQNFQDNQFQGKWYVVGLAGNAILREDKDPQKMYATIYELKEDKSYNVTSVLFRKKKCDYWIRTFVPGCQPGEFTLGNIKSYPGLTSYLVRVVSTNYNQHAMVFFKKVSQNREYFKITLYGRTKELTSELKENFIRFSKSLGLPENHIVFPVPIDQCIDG

B1: HRP-2-702 (ssDNA)
DNA: ATCCAGAGTGACGCAGCATTAAATAGGGGTTTGGCTTTGGGTCTGGCATATAGGAACAAGTTTGGACACGGTGGCTTAGT
modifications: immobilized on magnetic particles
B1: in data set [1], the dissociation constant (Kd) is 128 pM.

B2: B01 (ssDNA)
DNA: ATCCAGAGTGACGCAGCAGGTTAAGGTGTAGGTCCGGGTGGGGGGGTGGGTTGGGGGACTGGTGGACACGGTGGCTTAGT
modifications: 5'-amino, coupled to magnetic particles
With B2, the Kd with TNF-alpha [2] came out at 350 pM.

B3: S01 (ssDNA)
DNA: ATCCAGAGTGACGCAGCATGCTTAAGGGGGGGGCGGGTTAAGGGAGTGGGGAGGGAGCTGGTGTGGACACGGTGGCTTAGT
modifications: 5'-amino, coupled to magnetic particles
For the molecule B3, the Kd in the data set with TNF-alpha [3] is 190 pM.

B4: NGAL-05 (ssDNA)
DNA: GAATTCCGCCCTCGTCCCATCTCGGCTTGGTATGGCGGAGCTGGATAGTATAGTCGGAACACCAACCGAGAACGGAATTC
modifications: immobilized on magnetic particles
In data set [4], B4 displayed a Kd of 920 pM.

These data come from patent publication US20190324022, “METHODS AND SYSTEMS FOR IDENTIFYING CANDIDATE NUCLEIC ACID AGENT” (APTITUDE MEDICAL SYSTEMS, INC., published 2019).
